Results as given in the DeepSol protein solubility set.

Assay: soluble on expression in E. coli; label from the status in PepcDB or PDB records

| Sequence | soluble on expression in E. coli |
| --- | --- |
| MAHHHHHHMSDCHWAVIRKAVEAEWDASIIPALAAYIEVPNQSPDFDPQWATNGLLTKAFTILINWMKGQNLLGLSYELMEVEGRTPFLLVEIAGTEPTKNTLLMYGHMDKQPPLHPWGEGLDPHKAVVRDGKLYGRGGADDGYALFSAITSVSVLQRHGIPHGRVIVVIEACEESGSFDLDYYMERCKERIGNVDLMICLDSACLNYSQVWLTTSLRGVTGGVLNVQTLTESMHSGVAGGVVPDTFRIARELLDRVEDSKTGKVLFPEAYCEIPDYVVKSMESMKAVPFKEQFAMADGVSAEPGDNVELALRNFWKPSLTVTGSNLPEPQIAGNVIRTHTSLKLSLRVPPLVDAEKATQAMAKVLVANPPYGAKVWFEPEVPGDGCATPELKPWLVTALNEGSKMAYGNPLAFQGMGASIPFISMLLKAYPQAQFVVTGVLGPKSNAHGPNEFLHIEYAKGLTFAISRVVAEHFSHTPK | soluble |
| MSALRHIAVIDIGKTNAKVALVDLATSSEVALRRMANAPVRQAPYPHHDVESLWTFILDSLAGLNCEQRIDAISITTHGATGALVDASGELVLPVLDYEFDGPNGLAADYDAIRPPFAETGTPRLPLGLNLGAQFFWQQKRFPAAFAHATAILMYPQYWALRLTGVAANEVTSLGCHTDLWNPWTAGFSSLVDRLDWRGLMAPVRPARNRLGPILPALAARTGLDARTPVFCGLHDSNASLLPHLLSDAPPFSVVSTGTWVVSMAVGGREIALDAARDTLVNVNALGDPLPSARFMGGREFSVLTEGQPETWSEDDIGAVLARKTLLLPSTQQGSGPFPHQAATWLDAESINDGQRFAAVSFYLALMTATCLDLIGADGPTTVEGPFARNQLFVGMLAASTGRAVVASEATTGTSIGAALLASDQVMAYGKGERIEPPTDRAWADYANAWRVAVEARGLEHHHHHH | not soluble |
| RQVQKELGDVLVRLHNPVVLTPTTVQVTWTVDRQPQFIQGYRVMYRQTSGLQATSSWQNLDAKVPTERSAVLVNLKKGVTYEIKVRPYFNEFQGMDSESKTVRTTEE | soluble |
| MSLKVGECMTKFNWHESAEKKWDSSAEFWNQNSQEMWDSGSRSTIIPFFEQYVKKEAEVLDVGCGDGYGTYKLSRTGYKAVGVDISEVMIQKGKERGEGPDLSFIKGDLSSLPFENEQFEAIMAINSLEWTEEPLRALNEIKRVLKSDGYACIAILGPTAKPRENSYPRLYGKDVVCNTMMPWEFEQLVKEQGFKVVDGIGVYKRGVNEKMLGQLSTDLQQSLTFLWVFMLKRHKEMKEFLGGKEGHHHHHH | soluble |
| MSCDRKDEEKKETEEKKDDESKKKDEKKEEKSKRKEDEKKEKQNIAGAVYNQMRNTILMEEGSVISGRFEVKGIIGGGGFAQIYKAWDKVRKEDCAIKVEHESQDIRRMKLEITVLLALRGSMGIPEILAQGKWQHEDNKSHYIVMQLVGRNLSDVRRALPHKRITERTLYRAMIQVLKALSLVHGAGFLHRDLKPSNCCIGAIDCTRIYLIDYGLTRQYLDKGGIVRKPRAGVGLRGTVRYMSLDAHARQDLGPKNDLVAFLYTTIECGDGYLPWSHEKTHENIIKLKQAHIGDKLCTKQPVMTKAAEYIESLNYHSIPDYEKLLALMEECNPPDLKESEPYDWQYRHLPNGTPGGTKENVTERMAI | soluble |
| GPGSMMRTQQVDPDLTPVLAALASRINRDLPTVVELLCRRLVVQWNRAYLRKDWRFVENASRYLGWLFLLNVVEVDIIYQLLLKHLTSEKRREEDIDQAAKLFRETFKVMSLKERRSFHEQILTPFRDLLAMDDEELRLSTRSQAVLESCLKEVQEWERRKEREEAIPDYLVLFDLEMQQRHEMDLDEKYPTEDALDRYAFDAEYDTHEEQYEAVRKAILGEDWEVELLQQV | not soluble |
| SLENVMRSLGFGFACKKGLKPDSPNQDDFAALCCSAFRLFGVFDGHGPSGHDVSGYVHRMLFALLLTDESLNRNPQLALRNAFVAPSKLRKSALLQVVCLPLFRPQPFTNVGGYDEAKAVRFVLFFSGGELKRLECDIPYRVFLKGRLYPGLAMSRALGDAIASHAGVSCEPDLSTVELDRSCLFVIIASDGVWEFISNQEAVNIVNEAMGSERKVRAKAAAERLALEAFKRWVEEEGNVVDDVFPVSPGGSHALPLLTTDPFIAKMKFLTNILLVLSCVLVLAGTVQGQKME | not soluble |
| SKSKEPLLNGFFWNRTSIYYNCQVIIEVTEMLHNASLLIDDIEDSSKLRRGFPVAHSIYGIPSVINSANYVYFLGLEKVLMLEHPEAVRVFTRQLLELHRGQGLDIHWRDTYTCPSEAEYRAMVLQKTGGLFGLAVGLMQLFSDWKRDLKPLLDTLGLYFQIRDDYANLNSKQYSANKSFCEDLTEGKFSFPTIHAIWSHPESTQVQNILRRRTENLDIKRYCVDYLEKVGSFAYTRQTLLDLEVEAYRLIKELGGNPELEALVEHLSRMYKEPEGGATVSQSK | soluble |
| MAMHTWFECKIRYEKTMENGMQKKVTEPYLVDALSFTEAEARIIEEMTPFITGEFTVSDIKRANYSELFPSDEESADRWFKCKLIFITLDEKSGAEKKTSTQVLVQAADLRDAVKKLDEGMKGTMADYQIGMVSETPLMDVYPYSAGPNDKPEFDPSKA | not soluble |
| VLASILLSQAAYESNYGSSLLSVKYHNIYSLPARPGQEHIYLKDNVYSKGKWQYQKVDFAVFRDWSSSMSSYLEELRQGRWGESTYKEVAGTTSYKVAAEKLQAAGFNSDPDYTKHLISIIETYNL | not soluble |
| MGSDKIHHHHHHMWFKNLQLHRFSAPWSPSADEVEASLAKHAFFPGTSLEMQTQGWASPRDNGQLVHAVGRQMLLTLRTEKKLLPATVVNQVTKARAAEVEEQQGYKPGRKQLRELKEQVTEELLPRAFSIRRDTRVWIDPDNGWLAIDAASTAKADEVRGMLFKALDALPLANLHVNQSPVAAMTDWLSTDVAPAGFTVDQEIELQSGSESKATVRYVRHPLDAEDLRRHISGGKRCTRLAMTWNDRVSFVLTDSLAIKRVAPLDVIKEQADGTVSDEDERFDADFTLMAGELAGMLGDLTEALGGERKA | not soluble |
| MVRVKVNDRIVEVPPGTSVMDAVFHAGYDVPLFCSEKHLSPIGACRMCLVRIGLPKKGPDGKPLLNEKGEPEIQWQPKLAASCVTAVADGMVVDTLSDVVREAQAGMVEFTLLNHPLDCPTCDKGGACELQDRTVEYGLYEKYYQKGPLELPVYTRFEFTRRHVDKHHPLSPFVILDRERCIHCKRCVRYFEEVPGDEVLDFIERGVHTFIGTMDFGLPSGFSGNITDICPVGALLDLTARFRARNWEMEETPTTCALCPVGCGITADTRSGELLRIRAREVPEVNEIWICDAGRFGHEWADQNRLKTPLVRKEGRLVEATWEEAFLALKEGLKEARGEEVGLYLAHDATLEEGLLASELAKALKTPHLDFQGRTAAPASLFPPASLEDLLQADFALVLGDPTEEAPILHLRLSEFVRDLKPPHRYNHGTPFADLQIKERMPRRTDKMALFAPYRAPLMKWAAIHEVHRPGEEREILLALLGDKEGSEMVAKAKEAWEKAKNPVLILGAGVLQDTVAAERARLLAERKGAKVLAMTPAANARGLEAMGVLPGAKGASWDEPGALYAYYGFVPPEEALKGKRFVVMHLSHLHPLAERYAHVVLPAPTFYEKRGHLVNLEGRVLPLSPAPIENGEAEGALQVLALLAEALGVRPPFRLHLEAQKALKARKVPEAMGRLSFRLKELRPKERKGAFYLRPTMWKAHQAVGKAQEAARAELWAHPETARAEALPEGAQVAVETPFGRVEARVVHREDVPKGHLYLSALGPAAGLRVEGRVLVPAGGEA | soluble |
| GPGSMLANYDYESDLRGRTDELGRAQHVDAYDKHPTFLESPYAGQEDLLRDAPQSYMDGPPPGYGGHDAYEHVDMNGGGYDLPLQPQAQTQAVDTRRLSKDRLARGGLNIFSWNTDAPTLNHPREVRERDCAELQRLRPVDSAAQRDKEVREKFEGNTQSRFLCFSESDSPGKRRGVRVFNPNNKNGNLNSGTGHENPIQNRFNEEPQPFKIRQQQPRPLPQQNLPPAGRATHSNRQESGGIPGFAGMGEGRQHNARRGRGSYRG | not soluble |
| MAHHHHHHMLKHKYNDSCVQELFYKNNIKLIAIDIDGTLADDTGKISDENLKAIEVCKKGGIEIILASGRLHSYAMKMFTNEQIEKYKIEKLDGVYSHGAYIHMKGYDYVYRKFSYKDLELILFSLGSYNILRNAVFLTVDSAYVINDDIKLIEEYIYTPESEGIISDIEYVKIIDTNYKPILINKIKDIFNIGDIVSIEIYDKLYPNQDIYSDLFKVLFYELQPHYKIYIPSSNNKIVLSPINTAKVHTTQLYAQFYRINLNNILSIGNDDNDIELLSSTGFSVAVKNSTPRALQVARCVSTKTNNENAVANIIYRVLSGRRS | not soluble |
| MGSDKIHHHHHHLVPPDYQDPPSDFTAEVEAGLQLNTGNNESKNFNSRAYLTYDTPKTRQEGTFKVYYAADGTETTSEKYDLFLQSSYKLNRGYVFGRGEFTWDDFGSFTEIRTLSTGYGFDLIKSYKTKLSLEAGPGYRYDMPRATLSDPEPRANREVILRTAARYSVKLQEYTSLNADVTAETGLDNNTLTLDMSYKNTFLQDWAFKIGMNVRYTQDVPQDSQRTDTTTTFNLLYTFQ | not soluble |
| MNNSAFTFQTLHPDTIMDALFEHGIRVDSGLTPLNSYENRVYQFQDEDRRRFVVKFYRPERWTADQILEEHQFALQLVNDEVPVAAPVAFNGQTLLNHQGFYFAVFPSVGGRQFEADNIDQMEAVGRYLGRMHQTGRKQLFIHRPTIGLNEYLIEPRKLFEDATLIPSGLKAAFLKATDELIAAVTAHWREDFTVLRLHGDCHAGNILWRDGPMFVDLDDARNGPAVQDLWMLLNGDKAEQRMQLETIIEAYEEFSEFDTAEIGLIEPLRAMRLVYYLAWLMRRWADPAFPKNFPWLTGEDYWLRQTATFIEQAKVLQEPPLQLTPMY | soluble |
| MKEKSIEDIVFEKFQPYINWSIDKLCEHFSINKGEKGLNYRIASAILNLKGKTTKSKPFPEVEEFEKSSIVVKTVHFNKKNVNKESMSFGAFKFEELANEEWEDSEGYPSAQWRNFLLETRFLFFVVKEDEDGVDIFKGIKFFSMPEEDINGPVKRMWDDTVKKLKEGVTLEAVPDKSTKDGWRIKNNFVDKSDDLICHVRPHTNNRDYRGGSNADKLPKKINWINRPDSDDYSDEWMTKQSFWINNDYIKKQVEDLL | soluble |
| GPGSMAVPDDNAEEVELLLSISPEVVCRDPTHSSTLVFLLPFRFVLHVTLPPRGYPDVSRPSLFVAAGPNAHLVNQFSSQLNKALREEVPLGGPMLLHIFTLAQDIATELQRTREAEAQEAKARREAMESEAQLALAEREASSVEVWASDAITDRKSKFVAHMARVDSEAAVREVVMHLRSQKHIAEAAHPTIYAYRFTDSSGVVHHDSDDDGETGAASRIMFLLEQMKVDGYVVVVTRWFGGVLLGPDRFKHIMEVARSILLTIPQREKERGVRDWQDRQ | soluble |
| MIIKSISLMHDRGNGLGGGFAAYGIYPDFKEFFAFHLMYENGMALQLTEEYLERHFFVEHYEEIPTRRTPAIVHPPLFKRYFVKPLETPEYREAIDYQNMTDEDVVVRHVMAINNEIEGAFVVSSGKNMGAFKGVGYPEEIADFFRLEEYTGYIWTAHNRFPTNTPGWWGGAHPFTLLDWSIVHNGEISSYGINKRYLEMYGYVCTMLTDTEVVAYTLDLLIRKHGLTPELASLAMAAPFWDMIDGLPDDERQLLTAIRQVYGSALLNGPFAILFASNEGLIGLNDRVKLRPLVCATKDDFVYMASEEAAIREICPAPDKVWSPRGGEPVIVKMQPGVI | not soluble |
| MEKSLETVPGLDLSGEDIEMYYQYVRFVDRFLRFNRNYQIEYFKLSYPGDGSSEREVDLLKRWIDTVIQLKVKDLDFFDYSWEWGFDNFQLPSTIYICESLVSLKLSTVTLPSVKSVSLPFLRVLKLGAVKFADHLDLETLISGCTALETLAIRFFDRVQVLQVSSQSLLSFTHVAPKLVFTHAVRKPLAEKDLSIVIDAPRLEYLKLSDHQTSSFIIKNPGSLVAVDIDINLSSGFDSRNMIRDFLVGISSVKNMTISSIILKFYDYRFKMLPTFLEICPNLKSLILKSTEELGIKESSMFSGPQDFLPSLEYVEMKMPLKKGLLLEIRMLVGYFLEKATILKKLTLCLDDYRKRKESLIPRILAIPRISTSCEVVVL | soluble |
